From the supplement of paper PMC10598134
± gives the standard deviation.

Experiment: collision cross section of modified peptide (TIMS, N2, iRT-aligned); higher = larger / more extended gas-phase ion
Procedure, shortened: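 Collision cross section was derived from the Mason-Schamp equation. Each value averages 1–3 technical replicates of the most abundant feature per charge state, measured on a timsTOF Pro/HT in dda-PASEF mode (nitrogen, ~2.4 mbar) after a 120-min nanoflow C18 gradient at 60 °C. Synthetic peptide pools (~100 fmol/µL in 2% acetonitrile/0.1% formic acid, iRT standard spiked 1:40) were identified with MaxQuant, and 1/K0 was calibrated with three reference ions and aligned run-wise to the median iRT peptide deviation.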

[1] = charge state: 2, modification: Glutarylation
[2] = charge state: 3, modification: Glutarylation
[3] = charge state: 2, modification: GlyGly (K)
[4] = charge state: 3, modification: GlyGly (K)
[5] = charge state: 2, modification: Malonyl
[6] = charge state: 2, modification: Methyl (K)
[7] = charge state: 3, modification: Methyl (K)
[8] = charge state: 2, modification: Succinyl
[9] = charge state: 3, modification: Succinyl
[10] = charge state: 2, modification: Trimethyl (K)
[11] = charge state: 3, modification: Trimethyl (K)
[12] = charge state: 2, modification: hydroxyisobutyryl
[13] = charge state: 3, modification: hydroxyisobutyryl
[14] = charge state: 2, modification: Acetyl (K)
[15] = charge state: 3, modification: Acetyl (K)
[16] = charge state: 2, modification: Butyryl
[17] = charge state: 3, modification: Butyryl
[18] = charge state: 2, modification: Crotonyl
[19] = charge state: 3, modification: Crotonyl
[20] = charge state: 2, modification: Dimethyl (K)
[21] = charge state: 3, modification: Dimethyl (K)
[22] = charge state: 2, modification: Formyl
[23] = charge state: 3, modification: Formyl

What does the source list for “GTISAPGKVVTAAAQAK [_GTISAPGK(Gluratylation)VVTAAAQAK_]”?
collision cross section [1]: 445.81 ± 0.95 Å²; collision cross section [2]: 526.52 ± 1.1 Å²

For “GTISAPGKVVTAAAQAK [_GTISAPGK(GlyGly (K))VVTAAAQAK_]”, which collision cross section [3] is on record?
Its collision cross section is 456.01 ± 1.6 Å².

And the collision cross section [4]?
The collision cross section was 541.49 ± 0.36 Å².

Which results are given for “GTISAPGKVVTAAAQAK [_GTISAPGK(Malonyl)VVTAAAQAK_]”?
collision cross section [5]: 432.93 ± 5.1 Å²; collision cross section (charge state: 3, modification: Malonyl): 519.93 ± 1.9 Å²

What does the source list for “GTISAPGKVVTAAAQAK [_GTISAPGK(Methyl (K))VVTAAAQAK_]”?
collision cross section [6]: 466.62 ± 2.3 Å²; collision cross section [7]: 495.95 ± 2.3 Å²

What does the source list for “GTISAPGKVVTAAAQAK [_GTISAPGK(Succinyl)VVTAAAQAK_]”?
collision cross section [8]: 439.98 ± 0.51 Å²; collision cross section [9]: 520.85 ± 1.6 Å²

What does the source list for “GTISAPGKVVTAAAQAK [_GTISAPGK(Trimethyl (K))VVTAAAQAK_]”?
collision cross section [10]: 476.61 ± 0.99 Å²; collision cross section [11]: 496.52 ± 0.86 Å²

For “GTISAPGKVVTAAAQAK [_GTISAPGK(hydroxyisobutyryl)VVTAAAQAK_]”, which collision cross section [12] is on record?
Its collision cross section is 447.84 ± 0.78 Å².

What about the collision cross section [13] of the same sequence?
Its collision cross section is 524.07 ± 2 Å².

For “GTITVSAQELKDNR [_GTITVSAQELK(Acetyl (K))DNR_]”, which collision cross section [14] is on record?
The collision cross section was 415.96 ± 1.9 Å².

What about the collision cross section [15] of the same sequence?
Its collision cross section is 479.46 ± 0.78 Å².

What does the source list for “GTITVSAQELKDNR [_GTITVSAQELK(Biotin)DNR_]”?
collision cross section (charge state: 2, modification: Biotin): 437.8 ± 0.23 Å²; collision cross section (charge state: 3, modification: Biotin): 500.75 Å²

With “GTITVSAQELKDNR [_GTITVSAQELK(Butyryl)DNR_]” as the sequence, how does the collision cross section [16] read?
The collision cross section was 422.6 ± 0.77 Å².

And the collision cross section [17]?
The collision cross section was 481.65 ± 2.9 Å².

For “GTITVSAQELKDNR [_GTITVSAQELK(Crotonyl)DNR_]”, which collision cross section [18] is on record?
Its collision cross section is 422.36 ± 0.55 Å².

What about the collision cross section [19] of the same sequence?
Its collision cross section is 483.09 ± 1.6 Å².

For “GTITVSAQELKDNR [_GTITVSAQELK(Dimethyl (K))DNR_]”, which collision cross section [20] is on record?
The collision cross section was 437.65 ± 1.3 Å².

And the collision cross section [21]?
Its collision cross section is 475.47 ± 2.4 Å².

Which collision cross section [22] does the source give for “GTITVSAQELKDNR [_GTITVSAQELK(Formyl)DNR_]” here?
Its collision cross section is 413.69 ± 0.19 Å².

And the collision cross section [23]?
Its collision cross section is 471.67 ± 1.8 Å².

With “GTITVSAQELKDNR [_GTITVSAQELK(Gluratylation)DNR_]” as the sequence, how does the collision cross section [1] read?
The collision cross section was 422.99 ± 0.48 Å².

And the collision cross section [2]?
The collision cross section was 483.37 ± 1.7 Å².

With “GTITVSAQELKDNR [_GTITVSAQELK(GlyGly (K))DNR_]” as the sequence, how does the collision cross section [3] read?
The collision cross section was 442.89 ± 0.96 Å².

And the collision cross section [4]?
Its collision cross section is 487.43 ± 0.34 Å².

With “GTITVSAQELKDNR [_GTITVSAQELK(Malonyl)DNR_]” as the sequence, how does the collision cross section [5] read?
The collision cross section was 419.75 ± 0.051 Å².

With “GTITVSAQELKDNR [_GTITVSAQELK(Methyl (K))DNR_]” as the sequence, how does the collision cross section [6] read?
Its collision cross section is 439.73 ± 1.7 Å².

And the collision cross section [7]?
Its collision cross section is 485.75 ± 3.3 Å².

With “GTITVSAQELKDNR [_GTITVSAQELK(Propionyl)DNR_]” as the sequence, how does the collision cross section (charge state: 2, modification: Propionyl) read?
The collision cross section was 415.55 Å².

Which results are given for “GTITVSAQELKDNR [_GTITVSAQELK(Succinyl)DNR_]”?
collision cross section [8]: 421.79 ± 0.53 Å²; collision cross section [9]: 480.4 ± 2.5 Å²

With “GTITVSAQELKDNR [_GTITVSAQELK(Trimethyl (K))DNR_]” as the sequence, how does the collision cross section [10] read?
Its collision cross section is 442.48 ± 1 Å².

And the collision cross section [11]?
Its collision cross section is 479.04 ± 1.8 Å².

For “GTITVSAQELKDNR [_GTITVSAQELK(hydroxyisobutyryl)DNR_]”, which collision cross section [12] is on record?
Its collision cross section is 423.58 ± 0.3 Å².

And the collision cross section [13]?
Its collision cross section is 485.27 ± 2.8 Å².

Which collision cross section (charge state: 2, modification: Hydroxyproline) does the source give for GTPGKPGPR [_GTPGKP(Hydroxyproline)GPR_] here?
The collision cross section was 308.55 Å².

For “GTVPDDAVEALADSLGKK [_GTVPDDAVEALADSLGK(Acetyl (K))K_]”, which collision cross section [14] is on record?
The collision cross section was 449.76 ± 3.1 Å².

And the collision cross section [15]?
The collision cross section was 527.69 ± 0.69 Å².

Which results are given for “GTVPDDAVEALADSLGKK [_GTVPDDAVEALADSLGK(Butyryl)K_]”?
collision cross section [16]: 458.53 ± 0.36 Å²; collision cross section [17]: 534.24 ± 1.4 Å²

With “GTVPDDAVEALADSLGKK [_GTVPDDAVEALADSLGK(Crotonyl)K_]” as the sequence, how does the collision cross section [18] read?
The collision cross section was 456.44 ± 0.38 Å².

And the collision cross section [19]?
Its collision cross section is 536.14 Å².

For “GTVPDDAVEALADSLGKK [_GTVPDDAVEALADSLGK(Dimethyl (K))K_]”, which collision cross section [20] is on record?
The collision cross section was 485.51 ± 1.7 Å².

What about the collision cross section [21] of the same sequence?
The collision cross section was 525.76 Å².

With “GTVPDDAVEALADSLGKK [_GTVPDDAVEALADSLGK(Formyl)K_]” as the sequence, how does the collision cross section [22] read?
The collision cross section was 449.34 ± 1.3 Å².

And the collision cross section [23]?
Its collision cross section is 523.67 ± 1.8 Å².
